Positions count from the first letter of the chain named. Blank lines part the entries; values can stand above or below the binder they belong to.
Experiments:
Test in all cases: pull-down
GST-Lsb3 = target: T1, GST-Lsb3 (S. cerevisiae, UniProt P43603 1-459)
T1 sequence (looked up): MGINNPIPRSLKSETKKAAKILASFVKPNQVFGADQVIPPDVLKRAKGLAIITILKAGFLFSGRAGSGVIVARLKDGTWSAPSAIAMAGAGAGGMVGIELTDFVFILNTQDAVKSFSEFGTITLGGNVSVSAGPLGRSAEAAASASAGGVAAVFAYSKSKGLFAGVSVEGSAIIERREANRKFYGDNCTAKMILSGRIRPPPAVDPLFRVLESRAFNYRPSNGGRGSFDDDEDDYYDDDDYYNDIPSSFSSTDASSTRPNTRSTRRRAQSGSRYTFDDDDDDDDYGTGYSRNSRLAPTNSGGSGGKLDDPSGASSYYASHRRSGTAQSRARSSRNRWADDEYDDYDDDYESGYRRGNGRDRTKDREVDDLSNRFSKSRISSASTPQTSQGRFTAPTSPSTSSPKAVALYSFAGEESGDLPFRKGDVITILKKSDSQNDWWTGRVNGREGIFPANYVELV

GST-Ysc84 = target: T2, GST-Ysc84 (S. cerevisiae, UniProt P32793 1-468)
T2 sequence (looked up): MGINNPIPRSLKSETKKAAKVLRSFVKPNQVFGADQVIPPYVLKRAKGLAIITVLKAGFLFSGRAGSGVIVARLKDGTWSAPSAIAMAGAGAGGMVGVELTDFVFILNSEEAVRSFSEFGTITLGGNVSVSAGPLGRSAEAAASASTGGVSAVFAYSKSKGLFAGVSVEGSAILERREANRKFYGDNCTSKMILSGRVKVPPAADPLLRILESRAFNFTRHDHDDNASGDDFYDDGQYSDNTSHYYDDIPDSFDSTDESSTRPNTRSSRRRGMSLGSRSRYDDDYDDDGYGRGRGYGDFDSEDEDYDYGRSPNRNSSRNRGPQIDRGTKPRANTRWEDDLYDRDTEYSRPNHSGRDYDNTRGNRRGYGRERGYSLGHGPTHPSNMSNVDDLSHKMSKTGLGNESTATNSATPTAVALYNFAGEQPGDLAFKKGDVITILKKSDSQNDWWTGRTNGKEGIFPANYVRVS

GST-Sla1(1–420aa, W108S) = target: T3, GST-Sla1(1–420aa, W108S) (S. cerevisiae, UniProt P32790 1-420, W108S)
T3 sequence (looked up): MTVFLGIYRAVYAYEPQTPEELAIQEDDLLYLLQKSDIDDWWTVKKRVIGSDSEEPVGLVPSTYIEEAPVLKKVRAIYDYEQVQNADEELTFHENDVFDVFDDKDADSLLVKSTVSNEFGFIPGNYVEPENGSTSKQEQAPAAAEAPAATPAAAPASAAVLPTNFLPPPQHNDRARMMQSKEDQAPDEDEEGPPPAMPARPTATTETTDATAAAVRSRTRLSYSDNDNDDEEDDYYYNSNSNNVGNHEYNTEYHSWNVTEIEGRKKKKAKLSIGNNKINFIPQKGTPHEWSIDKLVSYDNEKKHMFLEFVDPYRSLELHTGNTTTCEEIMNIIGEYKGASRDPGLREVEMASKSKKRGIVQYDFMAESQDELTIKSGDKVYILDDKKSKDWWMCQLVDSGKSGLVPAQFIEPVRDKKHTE

GST-Sla1(1–420aa, W41S) = target: T4, GST-Sla1(1–420aa, W41S) (S. cerevisiae, UniProt P32790 1-420, W41S)
T4 sequence (looked up): T3 sequence (looked up) with W41S, S108W

GST-Sla1(1–420aa) = target: T5, GST-Sla1(1–420aa) (S. cerevisiae, UniProt P32790 1-420)
T5 sequence (looked up): T3 sequence (looked up) with S108W

- binding result (GST-Lsb3): binds
- binding result (GST-Ysc84): binds
- binding result (GST-Sla1(1–420aa, W108S)): binds
- binding result (GST-Sla1(1–420aa, W41S)): binds
- binding result (GST-Sla1(1–420aa)): binds
B1: MBP-Ecm25(361–535aa) (domain or fragment, S. cerevisiae, UniProt P32525 361-535, looked up)
chain: EISSPPSSVSSSSTIPVLPKPRKSSPTRYSELGCLTLPRSRSPSPQRSVTSPTYTPVALQNTPVLKPKSSSRNVSSPSFNAKPPLPIKAVTRPQLSLTSNSNTDLALASSSTDTLSSPTKTPSADSLPLSNSSTDLTISDNIKEMVKDEPAKDKNSVETDIFVQQFESLTLVQNA

- binding result (GST-Lsb3): binds
- binding result (GST-Ysc84): binds
- binding result (GST-Sla1(1–420aa, W108S)): binds
- binding result (GST-Sla1(1–420aa, W41S)): binds
- binding result (GST-Sla1(1–420aa)): binds
B2: MBP-Ecm25-C-term (361–599aa) (domain or fragment, S. cerevisiae, UniProt P32525 361-599, looked up)
chain: EISSPPSSVSSSSTIPVLPKPRKSSPTRYSELGCLTLPRSRSPSPQRSVTSPTYTPVALQNTPVLKPKSSSRNVSSPSFNAKPPLPIKAVTRPQLSLTSNSNTDLALASSSTDTLSSPTKTPSADSLPLSNSSTDLTISDNIKEMVKDEPAKDKNSVETDIFVQQFESLTLVQNAKIKKFDKELQEKKKKNETTSKTADKFSQKGYSDIKASNKVSRLAALYEERLQGLQVMNEMKQRW

Reference: paper PMC8202958 (Cell reports, 2021)
